Data on 13 molecules can be found in US6960454B2, “Methods for making and using a thermophilic enzyme as a β-glycosidase” (Director-General of Agency of Industrial Science and …, priority 1998, dated 2005).

The target of data set [1] is T1, Sβ-gly from S. solfataricus strain MT-4 (Saccharolobus solfataricus, UniProt P22498). To be noted: cited from earlier work; for Km / kcat: Sβ-gly, 75° C. and pH 6.5; for efficiency of hydrolysis by Sβ-gly: in words.
Data set [2] deals with his-tagged BGPh from P. horikoshii (His-BGPh) (Pyrococcus horikoshii, UniProt O58104). It counts as biochemical. To be noted: for efficiency of hydrolysis by His-BGPh: in words; for kcat: His-BGPh, 90° C. and pH 6.0. As to the method:
(§1) The enzyme reactions were carried out at 90° C. in a solution […] containing the substrate and the purified His-BGPh in 50 mM phosphate buffer (pH 6) with 0.1% Triton X-100 and 0.3 M NaCl. For the hydrolysis of p-nitrophenyl (p-Nph) β-D-saccharides, the reaction was terminated by the addition of 1 M Na2CO3 (1 ml), then centrifuged at 15,000×g for 10 min. The concentration of the p-Nph group in the supernatant was quantified by measuring the absorbance at 400 nm. For the hydrolysis of β-D-glucoside, the released glucose was analyzed with a Glucose C-II Test kit (Wako Pure Chemicals, Japan). Initial velocities were obtained directly from the initial slopes of the time course plots. The Km and kcat values were calculated using the Michaelis-Menten equation and the least squares method (12). The subsite affinity for a long alkyl chain was determined using the method reported previously (13-15) on the basis of the subsite theory (16).

Data set [3] deals with T1, Sβ-gly from S. solfataricus strain MT-4. Nature of the data set: Kinetic parameters of substrate hydrolysis by Sβ-gly (from references 7, 21). It counts as biochemical, Sulfolobus solfataricus.
A short description of a further data set: Optimum pH. It counts as biochemical. To be noted: p-Nph-β-D-Glcp, 90° C. The procedure: The pH of the reaction mixtures ranged from 3.9 to 5.5 in sodium acetate buffer and from 5.5 to 7.99 in phosphate buffer. Optical density measurements at A405 were performed as described for the enzyme assays.
Substrate in data set [4]: OCc1ccccc1O[C@@H]1O[C@H](CO)[C@@H](O)[C@H](O)[C@H]1O
Nature of the data set: purified protein, by the assay type. To be noted: other: His-BGPh, 90° C. and pH 6.0.

Another data set can be described thus: Optimum temperature. It counts as biochemical. To be noted: p-Nph-β-D-Glcp; listed as purified enzyme. As to the method: The enzyme reactions were carried out in duplicate at temperatures ranging from 50° C. to 100° C. for 30 min. Optical density measurements at A405 were performed as described for the enzyme assays.
Substrate in data set [5]: CCCCCCO[C@@H]1O[C@H](CO)[C@@H](O)[C@H](O)[C@H]1O
Nature of the data set: purified protein, by the assay type. It counts as biochemical. To be noted: other: His-BGPh, 90° C. and pH 6.0.

Substrate in data set [6]: O=[N+]([O-])c1ccc(O[C@@H]2OC[C@@H](O)[C@H](O)[C@H]2O)cc1
As to the kind of experiment: purified protein, by the assay type. It counts as biochemical. The conditions noted are these: other: His-BGPh, 90° C. and pH 6.0.

Substrate in data set [7]: CCCCCCCCCCCO[C@@H]1O[C@H](CO)[C@@H](O)[C@H](O)[C@H]1O
As to the kind of experiment: purified protein, by the assay type. It counts as biochemical. To be noted: other: His-BGPh, 90° C. and pH 6.0.

Substrate in data set [8]: O=[N+]([O-])c1ccc(O[C@@H]2O[C@H](CO)[C@H](O)[C@H](O)[C@H]2O)cc1
Nature of the data set: purified protein, by the assay type. It counts as biochemical. To be noted: other: His-BGPh, 90° C. and pH 6.0.

Substrate in data set [9]: CCCCCCCCCCCCO[C@@H]1O[C@H](CO)[C@@H](O)[C@H](O)[C@H]1O
As to the kind of experiment: purified protein, by the assay type. The conditions noted are these: other: His-BGPh, 90° C. and pH 6.0. It counts as biochemical.

Substrate in data set [10]: O=[N+]([O-])c1ccc(O[C@@H]2O[C@H](CO)[C@@H](O)[C@H](O)[C@H]2O)cc1
As to the kind of experiment: purified protein, by the assay type. It counts as biochemical. To be noted: other: His-BGPh, 90° C. and pH 6.0.

Substrate in data set [11]: CCCCCO[C@@H]1O[C@H](CO)[C@@H](O)[C@H](O)[C@H]1O
Nature of the data set: purified protein, by the assay type. It counts as biochemical. The conditions noted are these: other: His-BGPh, 90° C. and pH 6.0.

Substrate in data set [12]: CO[C@@H]1O[C@H](CO)[C@@H](O)[C@H](O)[C@H]1O
Nature of the data set: purified protein, by the assay type. It counts as biochemical. The conditions noted are these: other: His-BGPh, 90° C. and pH 6.0.

Substrate in data set [13]: CCCCCCCCCO[C@@H]1O[C@H](CO)[C@@H](O)[C@H](O)[C@H]1O
As to the kind of experiment: purified protein, by the assay type. It counts as biochemical. To be noted: other: His-BGPh, 90° C. and pH 6.0.

Substrate in data set [14]: CCCCCCCCO[C@@H]1O[C@H](CO)[C@@H](O)[C@H](O)[C@H]1O
Nature of the data set: purified protein, by the assay type. It counts as biochemical. The conditions noted are these: other: His-BGPh, 90° C. and pH 6.0.

Substrate in data set [15]: O=[N+]([O-])c1ccc(O[C@@H]2O[C@H](CO)[C@@H](O)[C@H](O)[C@@H]2O)cc1
As to the kind of experiment: purified protein, by the assay type. It counts as biochemical. The conditions noted are these: other: His-BGPh, 90° C. and pH 6.0.

Substrate in data set [16]: CCCCCCCCCCO[C@@H]1O[C@H](CO)[C@@H](O)[C@H](O)[C@H]1O
Nature of the data set: purified protein, by the assay type. It counts as biochemical. To be noted: other: His-BGPh, 90° C. and pH 6.0.

Data set [17] is described as follows: Subsite affinity of BGPh for a long alkyl chain. It counts as biochemical. The conditions noted are these: from kcat/Km of n-Dodecyl- vs Methyl-β-D-Glcp. As to the method:
as §1

Data set [18] in a line: Heat treatment of the purified enzyme at 95° C. To be noted: 50 mM phosphate buffer (pH 6.0), 250 mM NaCl, 95° C. for 1 hour. It counts as physicochemical. The procedure: When the enzyme is treated in 50 mM phosphate buffer (pH 6.0) containing 250 mM NaCl at 95° C. for 1 hour, its activity is retained at the level of 80% based on the initial level. The enzyme has an optimum pH of pH 6.0 and an optimum temperature of 100° C. or higher in terms of the enzymatic activity.

Like-named read-outs stand apart in the source and are kept apart here. Bounds are passed on as bounds.

T1 sequence (P22498 whole entry N62M/R140P/N205M/N208M/A235H/V319M/K445F/G469C): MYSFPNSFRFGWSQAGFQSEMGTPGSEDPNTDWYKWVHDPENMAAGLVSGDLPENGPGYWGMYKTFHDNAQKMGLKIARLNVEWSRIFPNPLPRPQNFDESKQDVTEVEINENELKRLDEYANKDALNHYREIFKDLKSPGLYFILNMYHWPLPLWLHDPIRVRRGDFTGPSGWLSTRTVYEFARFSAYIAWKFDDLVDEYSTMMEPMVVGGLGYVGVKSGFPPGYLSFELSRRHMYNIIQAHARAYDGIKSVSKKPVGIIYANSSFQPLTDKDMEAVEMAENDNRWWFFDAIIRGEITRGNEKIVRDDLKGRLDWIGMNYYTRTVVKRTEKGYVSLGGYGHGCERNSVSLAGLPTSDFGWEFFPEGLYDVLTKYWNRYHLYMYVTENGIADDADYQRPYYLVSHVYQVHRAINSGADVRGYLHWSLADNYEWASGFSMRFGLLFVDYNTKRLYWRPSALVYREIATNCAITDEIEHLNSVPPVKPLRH

As usually defined, the Km is the substrate concentration at which the rate is half of its maximum. What is called kcat is the maximal rate divided by the concentration of active sites. In the case of `O=[N+]([O-])c1ccc(O[C@@H]2O[C@H](CO)[C@@H](O)[C@H](O)[C@H]2O)cc1` [p-Nph-β-D-Glcp, p-nitrophenyl β-D-glucopyranoside], in [1], the Michaelis-Menten constant (Km) was 500 µM and the catalytic constant (kcat) was 542 s⁻¹.
`O=[N+]([O-])c1ccc(O[C@@H]2O[C@H](CO)[C@H](O)[C@H](O)[C@H]2O)cc1` [p-Nph-β-D-Galp]: in data set [1], the Michaelis-Menten constant (Km) was 4700 µM and the kcat was 1020 s⁻¹.
For `OC[C@H]1O[C@@H](O[C@H]2[C@H](O)[C@@H](O)[C@H](O[C@H]3[C@H](O)[C@@H](O)C(O)O[C@@H]3CO)O[C@@H]2CO)[C@H](O)[C@@H](O)[C@@H]1O` (some centres unmarked) [Cellotriose], in data set [2], the “efficiency of hydrolysis by His-BGPh” value is reported as “low efficiency”. Moreover, in data set [1], the catalytic constant (kcat) was 197 s⁻¹ and the “efficiency of hydrolysis by Sβ-gly” value is given as “high efficiency”. Moreover, in data set [1] (read-out: Km), the Km was 3000 µM.
On to `CCCCCO[C@@H]1O[C@H](CO)[C@@H](O)[C@H](O)[C@H]1O` [n-Amyl-β-D-Glcp], for which, in [1], the Km is 1100 µM and the kcat was 256 s⁻¹.
For `CCCCCCO[C@@H]1O[C@H](CO)[C@@H](O)[C@H](O)[C@H]1O` [n-Hexyl-β-D-Glcp], in [1], the Km is 1000 µM and the catalytic constant (kcat) was 263 s⁻¹.
Consider `OC[C@H]1O[C@@H](O[C@H]2[C@H](O)[C@@H](CO)OC(O)[C@@H]2O)[C@H](O)[C@@H](O)[C@@H]1O` (some centres unmarked) [Laminaribiose], for which the turnover number (kcat) in data set [2] was 184 s⁻¹. In [1], the Michaelis constant (Km) is 1000 µM and the kcat is 908 s⁻¹.
Turning to `CCCCCCCCO[C@@H]1O[C@H](CO)[C@@H](O)[C@H](O)[C@H]1O` [n-Octyl-β-D-Glcp], in [3], the “kcat/Km relative to that for laminaribiose” value is given as 0.48 fold and the “kcat/Km relative to that for p-Nph-β-D-Glcp” value came out at 0.4 fold. In data set [1], the Km is 700 µM and the catalytic constant (kcat) was 313 s⁻¹.
Regarding Cellobiose, the kcat in data set [2] was 194 s⁻¹. In addition, in data set [1], the Km is 30000 µM and the turnover number (kcat) is 1333 s⁻¹.
Take `OC[C@H]1O[C@@H](O[C@H]2[C@H](O)[C@@H](O)[C@H](O[C@H]3[C@H](O)[C@@H](O)[C@H](O[C@H]4[C@H](O)[C@@H](O)C(O)O[C@@H]4CO)O[C@@H]3CO)O[C@@H]2CO)[C@H](O)[C@@H](O)[C@@H]1O` (some centres unmarked) [Cellotetraose]: the “efficiency of hydrolysis by His-BGPh” value in data set [2] is given as “low efficiency”. In [1], the kcat was 584 s⁻¹ and the “efficiency of hydrolysis by Sβ-gly” value is given as “high efficiency”. In addition, the Km in data set [1] (read-out: Km) is 1700 µM.
With `O=[N+]([O-])c1ccc(O[C@@H]2OC[C@@H](O)[C@H](O)[C@H]2O)cc1` [p-Nph-β-D-Xylp], in [1], the Km was 4000 µM and the kcat was 284 s⁻¹.
As for `OCc1ccccc1O[C@@H]1O[C@H](CO)[C@@H](O)[C@H](O)[C@H]1O` [Salicin], in data set [1], the Michaelis-Menten constant (Km) was 5000 µM and the kcat is 880 s⁻¹.
As to `OC[C@H]1O[C@@H](OC[C@H]2O[C@@H](O)[C@H](O)[C@@H](O)[C@@H]2O)[C@H](O)[C@@H](O)[C@@H]1O` [β-Gentiobiose], in [1], the turnover number (kcat) is 1360 s⁻¹. Besides, in [1] (read-out: Km), the Michaelis-Menten constant (Km) was 100000 µM.

B1: his-tagged BGPh from P. horikoshii (His-BGPh) (Pyrococcus horikoshii OT3) (protein)
chain: MPLKFPEMFLFGTATSSHQIEGNNRWNDWWYYEQIGKLPYRSGKACNHWELYRDDIQLMTSLGYNAYRFSIEWSRLFPEENKFNEDAFMKYREIIDLLLTRGITPLVTLHHFTSPLWFMKKGGFLREENLKHWEKYIEKVAELLEKVKLVATFNEPMVYVMMGYLTAYWPPFIRSPFKAFKVAANLLKAHAIAYELLHGKFKVGIVKNIPIILPASDKERDRKAAEKADNLFNWHFLDAIWSGKYRGVFKTYRIPQSDADFIGVNYYTASEVRHTWNPLKFFFEVKLADISERKTQMGWSVYPKGIYMALKKASRYGRPLYITENGIATLDDEWRVEFIIQHLQYVHKAIEDGLDVRGYFYWSFMDNYEWKEGFGPRFGLVEVDYQTFERRPRKSAYVYGEIARSKEIKDELLKRYGLPELQL
One may read the kcat/Km as the turnover number divided by the Michaelis constant. Consider B1, for which the “optimum pH” value in “Optimum pH” was determined as 6.0. Further, the Michaelis constant (Km) in data set [4] is 1960 µM; in [5], 540 µM; in data set [6], 100 µM; in data set [7] it was 50 µM; in [8], 1300 µM; in data set [9], 30 µM. Also, the Km in [10] was 350 µM; in [11], 2020 µM; in data set [12], 40740 µM; in data set [13], 80 µM; in data set [14], 200 µM; in data set [16], 80 µM. Besides, the kcat in data set [4] stood at 44 s⁻¹; in data set [5], 33 s⁻¹; in data set [6], 3 s⁻¹; in [7] it was 43 s⁻¹; in [8] it was 123 s⁻¹; in data set [9] it was 36 s⁻¹. Moreover, the catalytic constant (kcat) was 79 s⁻¹ in data set [10]; 31 s⁻¹ in data set [11]; 35 s⁻¹ in [12]; 39 s⁻¹ in data set [13]; 34 s⁻¹ in data set [14]; 2 s⁻¹ in data set [15]. In addition, the kcat in data set [16] was determined as 37 s⁻¹. Besides, the kcat/Km came out at 22200 M⁻¹ s⁻¹ in data set [4]; 60280 M⁻¹ s⁻¹ in [5]; 31830 M⁻¹ s⁻¹ in [6]; 944370 M⁻¹ s⁻¹ in [7]; 94340 M⁻¹ s⁻¹ in data set [8]; 1.1529e+06 M⁻¹ s⁻¹ in [9]. The kcat/Km in [10] was 225670 M⁻¹ s⁻¹; in data set [11] it was 15110 M⁻¹ s⁻¹; in [12], 850 M⁻¹ s⁻¹; in [13] it was 471570 M⁻¹ s⁻¹; in [14], 170700 M⁻¹ s⁻¹; in data set [15], 14600 M⁻¹ s⁻¹. For the same molecule, the catalytic efficiency (kcat/Km) in [16] is 469620 M⁻¹ s⁻¹. The same molecule registered an optimum temperature in “Optimum temperature” of at least 100 °C. Besides, the “subsite affinity A(C11) to bind a long alkyl chain (C11)” value in [17] amounted to 4.26 kcal/mol. The “activity retained based on the initial level” value in [18] came out at 80%.
